Source: the RNAGym collection of RNA variant scans (doi:10.7554/elife.80360)

B1: CPEB3 Ribozyme (parent)
chain: GGGGGCCACAGCAGAAGCGUUCACGUCGCGGCCCCUGUCAGAUUCUGGUGAAUCUGCGAAUUCUGCUGU

Variants of: B1
Assay: self-cleavage, relative activity (ratio to wild type); higher = more cleavage; co-transcriptional
For GGGGGCCACAGCAGAAGCGUUCACGUCGCGGCCCCUGUCAGAUUCUGGUGAAUCUGCGAAGUCUGUUGU, the self-cleavage was 0.659. GGGGGCCACAGCAGAAGCGUUCACGUCGCGGCCCCUGUCAGAUUCUGGUGAAUCUGCGAUUUCUGCUGA showed a self-cleavage of 0.536. Work on GGGGGCCACAGCAGAAGCGUUCACGUCGCGGCCCCUGUCAGAUUCUGGUGAAUCUGCGAUAUCUGCUGU yielded a self-cleavage of 0.623. Work on GGGGGCCACAGCAGAAGCGUUCACGUCGCGGCCCCUGUCAGAUUCUGGUGAAUCUGCGAAAUCUGUUGU yielded a self-cleavage of 0.83. For GGGGGCCACAGCAGAAGCGUUCACGUCGCGGCCCCUGUCAGAUUCUGGUGAAUCUGCGAAAUCGGCUGU, the self-cleavage was 0.529. In the case of GGGGGCCACAGCAGAAGCGUUCACGUCGCGGCCCCUGUCAGAUUCUGGUGAAUCUGCGAAAUCCGCUGU, the self-cleavage is reported as 0.585. With GGGGGCCACAGCAGAAGCGUUCACGUCGCGGCCCCUGUCAGAUUCUGGUGAAUCUGCGAGUUCUGCUGC the self-cleavage was 1.03. GGGGGCCACAGCAGAAGCGUUCACGUCGCGGCCCCUGUCAGAUUCUGGUGAAUCUGCGAGUUCUGCUGA showed a self-cleavage of 0.994. Work on GGGGGCCACAGCAGAAGCGUUCACGUCGCGGCCCCUGUCAGAUUCUGGUGAAUCUGCGAUUUCUGCUGU yielded a self-cleavage of 0.526. GGGGGCCACAGCAGAAGCGUUCACGUCGCGGCCCCUGUCAGAUUCUGGUGAAUCUGCGAACUCUGCGGU gave a self-cleavage of 0.798. GGGGGCCACAGCAGAAGCGUUCACGUCGCGGCCCCUGUCAGAUUCUGGUGAAUCUGCGAAGUCUGCGGU showed a self-cleavage of 0.808. GGGGGCCACAGCAGAAGCGUUCACGUCGCGGCCCCUGUCAGAUUCUGGUGAAUCUGCGAAAUCUGCUAU gave a self-cleavage of 1.05. GGGGGCCACAGCAGAAGCGUUCACGUCGCGGCCCCUGUCAGAUUCUGGUGAAUCUGCGAAGUCCGCUGU showed a self-cleavage of 0.64. With GGGGGCCACAGCAGAAGCGUUCACGUCGCGGCCCCUGUCAGAUUCUGGUGAAUCUGCGAAGUCUCCUGU the self-cleavage was 0.449. GGGGGCCACAGCAGAAGCGUUCACGUCGCGGCCCCUGUCAGAUUCUGGUGAAUCUGCGAACGCUGCUGU gave a self-cleavage of 0.487. Variant GGGGGCCACAGCAGAAGCGUUCACGUCGCGGCCCCUGUCAGAUUCUGGUGAAUCUGCGAACACUGCUGU has a self-cleavage of 0.554. With GGGGGCCACAGCAGAAGCGUUCACGUCGCGGCCCCUGUCAGAUUCUGGUGAAUCUGCGAAGACUGCUGU the self-cleavage was 0.871. Work on GGGGGCCACAGCAGAAGCGUUCACGUCGCGGCCCCUGUCAGAUUCUGGUGAAUCUGCGAAGCCUGCUGU yielded a self-cleavage of 0.873. For GGGGGCCACAGCAGAAGCGUUCACGUCGCGGCCCCUGUCAGAUUCUGGUGAAUCUGCGAAGGCUGCUGU, the self-cleavage was 0.71. Variant GGGGGCCACAGCAGAAGCGUUCACGUCGCGGCCCCUGUCAGAUUCUGGUGAAUCUGCGAAAUCUGCUGG has a self-cleavage of 1.02. For GGGGGCCACAGCAGAAGCGUUCACGUCGCGGCCCCUGUCAGAUUCUGGUGAAUCUGCGAAAUCUGCUGC, the self-cleavage was 1.06. For GGGGGCCACAGCAGAAGCGUUCACGUCGCGGCCCCUGUCAGAUUCUGGUGAAUCUGCGAUUUCUGCUUU, the self-cleavage was 0.66. In the case of GGGGGCCACAGCAGAAGCGUUCACGUCGCGGCCCCUGUCAGAUUCUGGUGAAUCUGCGAUUUCUGCUCU, the self-cleavage is reported as 0.556. Variant GGGGGCCACAGCAGAAGCGUUCACGUCGCGGCCCCUGUCAGAUUCUGGUGAAUCUGCGAUUUCUGCUAU has a self-cleavage of 0.637. GGGGGCCACAGCAGAAGCGUUCACGUCGCGGCCCCUGUCAGAUUCUGGUGAAUCUGCGAAAACUGCUGU gave a self-cleavage of 0.839. Work on GGGGGCCACAGCAGAAGCGUUCACGUCGCGGCCCCUGUCAGAUUCUGGUGAAUCUGCGAUUUCUGCGGU yielded a self-cleavage of 0.615. GGGGGCCACAGCAGAAGCGUUCACGUCGCGGCCCCUGUCAGAUUCUGGUGAAUCUGCGAACUCUACUGU gave a self-cleavage of 0.36. GGGGGCCACAGCAGAAGCGUUCACGUCGCGGCCCCUGUCAGAUUCUGGUGAAUCUGCGAACUCUGCUUU showed a self-cleavage of 0.893. GGGGGCCACAGCAGAAGCGUUCACGUCGCGGCCCCUGUCAGAUUCUGGUGAAUCUGCGAUUGCUGCUGU showed a self-cleavage of 0.679. In the case of GGGGGCCACAGCAGAAGCGUUCACGUCGCGGCCCCUGUCAGAUUCUGGUGAAUCUGCGAUUUCUCCUGU, the self-cleavage is reported as 0.362. Work on GGGGGCCACAGCAGAAGCGUUCACGUCGCGGCCCCUGUCAGAUUCUGGUGAAUCUGCGAUUUCAGCUGU yielded a self-cleavage of 0.394. GGGGGCCACAGCAGAAGCGUUCACGUCGCGGCCCCUGUCAGAUUCUGGUGAAUCUGCGAUUUCGGCUGU showed a self-cleavage of 0.333. Work on GGGGGCCACAGCAGAAGCGUUCACGUCGCGGCCCCUGUCAGAUUCUGGUGAAUCUGCGAAGUCUGCUGC yielded a self-cleavage of 0.697. GGGGGCCACAGCAGAAGCGUUCACGUCGCGGCCCCUGUCAGAUUCUGGUGAAUCUGCGAAGUCUGCUGA showed a self-cleavage of 0.969. With GGGGGCCACAGCAGAAGCGUUCACGUCGCGGCCCCUGUCAGAUUCUGGUGAAUCUGCGAAAUGUGCUGU the self-cleavage was 0.516. GGGGGCCACAGCAGAAGCGUUCACGUCGCGGCCCCUGUCAGAUUCUGGUGAAUCUGCGAUUUCUGAUGU showed a self-cleavage of 0.403. For GGGGGCCACAGCAGAAGCGUUCACGUCGCGGCCCCUGUCAGAUUCUGGUGAAUCUGCGAUUUCUGGUGU, the self-cleavage was 0.405. Variant GGGGGCCACAGCAGAAGCGUUCACGUCGCGGCCCCUGUCAGAUUCUGGUGAAUCUGCGAACUGUGCUGU has a self-cleavage of 0.427. With GGGGGCCACAGCAGAAGCGUUCACGUCGCGGCCCCUGUCAGAUUCUGGUGAAUCUGCGAACUCUGCUGA the self-cleavage was 0.946.
